The values below come from US5719041.

Targets include Bovine trypsin (bovine) (UniProt P00760); Human thrombin (human) (UniProt P00734); Human Factor XIa (human) (UniProt P03951); Human plasmin (human) (UniProt P00747).
Assay [1] addresses T1, MeOSuc-Ala-Ala-Pro-Val-MCA.
T1 sequence (peptide, N-terminal MeOSuc; C-terminal MCA): AAPV

Assay [2] concerns the target Human Factor Xa (human) (UniProt P00742).
Assay [3] addresses Human plasma kallikrein (human) (UniProt P03952).
Assay [4] has as its target Bovine chymotrypsin (bovine) (UniProt P00766).
For assay [5], the target named is Human activated protein C (human) (UniProt P04070).
For assay [6], the target named is Human leukocyte elastase (human) (UniProt P08246).
For assay [7], the target named is Human Factor XIIa (human) (UniProt P00748).
In assay [8] the target is Single chain tissue plasminogen activator (human) (UniProt P00750).
Assay [9] concerns the target Tissue factor·Factor VIIa complex (human Factor VIIa with recombinant human TF1-243) (human) (UniProt P08709).
Assay [10] has as its target Human Factor Xa (human) (UniProt P00742). The source holds these as a separate data set.
Assay [11] has as its target Human plasma kallikrein (human) (UniProt P03952). This is another data set of the same source.
Assay [12] has as its target Human Factor XIIa (human) (UniProt P00748). This is another data set of the same source.

Human leukocyte elastase, sequence (P08246 30-247 limits assumed): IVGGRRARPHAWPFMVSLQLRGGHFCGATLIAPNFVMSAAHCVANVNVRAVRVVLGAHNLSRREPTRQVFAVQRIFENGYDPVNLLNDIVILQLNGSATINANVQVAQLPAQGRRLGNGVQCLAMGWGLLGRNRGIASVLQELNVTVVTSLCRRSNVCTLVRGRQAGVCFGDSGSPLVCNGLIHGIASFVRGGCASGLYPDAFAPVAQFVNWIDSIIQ

Take “Human leukocyte elastase (from UniProt P08246) (enzyme)”: the Km of the substrate with HLE in [1] is 0.15 mM.
Regarding “Ecotin (recombinant wild type, E. coli periplasmic protein, 142 amino acid residues) (from UniProt P23827)”, the Percent Activity of protease with 100 nM inhibitor with Bovine trypsin (bovine) is 0%; in the assay with Human thrombin (human) it was 98%; with Human Factor XIa (human) it was 79%; in the assay with Human Factor Xa (human) [2], 0%; in assay [3] it was 0%; in assay [4], 0%. Besides, the Percent Activity of protease with 100 nM inhibitor was 99% in assay [5]; 0% in assay [6]; 0% in assay [7]; 100% with Human plasmin (human); 100% in assay [8]; 99% in [9]. Also, in the assay with Human Factor Xa (human) [10], the concentration giving 10-fold prolongation of clotting time, PT assay in normal human plasma came to 2 µM. Also, the concentration giving 10-fold prolongation of clotting time, APTT assay in normal human plasma in [11] and in [12] was 0.3 µM each time.
As to “Ecotin M84R mutant (from UniProt P23827)”, the Percent Activity of protease with 100 nM inhibitor with Bovine trypsin (bovine) came out at 0%; in the assay with Human thrombin (human), 4%; in the assay with Human Factor XIa (human) it was 5%; in the assay with Human Factor Xa (human) [2] it was 1%; in assay [3], 1%; in assay [4], 0%. Further, the Percent Activity of protease with 100 nM inhibitor was 50% in assay [5]; 88% in assay [6]; 1% in [7]; 10% with Human plasmin (human); 100% in [8]; 87% in [9].
Take “Ecotin M84K mutant (from UniProt P23827)”: the Percent Activity of protease with 100 nM inhibitor in the assay with Bovine trypsin (bovine) turned out to be 0%; in the assay with Human thrombin (human) it was 16%; in the assay with Human Factor XIa (human), 12%; in the assay with Human Factor Xa (human) [2] it was 2%; in assay [3], 2%; in assay [4], 1%. For the same substance, the Percent Activity of protease with 100 nM inhibitor turned out to be 65% in [5]; 85% in [6]; 0% in [7]; 9% with Human plasmin (human); 100% in assay [8]; 92% in assay [9].
